In paper PMC9169624:

Assays:
HELB (DNA helicase B) = HELB (DNA helicase B) (Homo sapiens, UniProt Q8NG08 1-1087); assay: PIFE fluorescence; EMSA: 2.5 nM DNA (5 nM in Fig. S1F); PIFE: 2 nM DNA for Kd; buffer, salt, pH and temperature not in the supplied material; optical tweezers at room temperature; conditions: protein: recombinant; label: 3'-Cy3; single strand
Human RPA (hRPA) = Human RPA (hRPA) (Homo sapiens, UniProt P27694;P15927;P35244 1-616;1-270;1-121); assay: EMSA; human RPA alone; EMSA: 2.5 nM DNA (5 nM in Fig. S1F); PIFE: 2 nM DNA for Kd; buffer, salt, pH and temperature not in the supplied material; optical tweezers at room temperature; conditions: protein: recombinant; copies: 1;1;1; label: 5'-Cy5; single strand
[1] = molecular target: HELB (DNA helicase B);Human RPA (hRPA) (Homo sapiens;Homo sapiens, UniProt Q8NG08;P27694;P15927;P35244 1-1087;1-616;1-270;1-121, |); assay: EMSA; HELB supershifts the human RPA-DNA complex; EMSA: 2.5 nM DNA (5 nM in Fig. S1F); PIFE: 2 nM DNA for Kd; buffer, salt, pH and temperature not in the supplied material; optical tweezers at room temperature; conditions: protein: recombinant;recombinant; copies: 1;1;1;1; label: 5'-Cy5; single strand
Sequence of HELB (DNA helicase B);Human RPA (hRPA) (Q8NG08 whole entry, chain 1 of 4): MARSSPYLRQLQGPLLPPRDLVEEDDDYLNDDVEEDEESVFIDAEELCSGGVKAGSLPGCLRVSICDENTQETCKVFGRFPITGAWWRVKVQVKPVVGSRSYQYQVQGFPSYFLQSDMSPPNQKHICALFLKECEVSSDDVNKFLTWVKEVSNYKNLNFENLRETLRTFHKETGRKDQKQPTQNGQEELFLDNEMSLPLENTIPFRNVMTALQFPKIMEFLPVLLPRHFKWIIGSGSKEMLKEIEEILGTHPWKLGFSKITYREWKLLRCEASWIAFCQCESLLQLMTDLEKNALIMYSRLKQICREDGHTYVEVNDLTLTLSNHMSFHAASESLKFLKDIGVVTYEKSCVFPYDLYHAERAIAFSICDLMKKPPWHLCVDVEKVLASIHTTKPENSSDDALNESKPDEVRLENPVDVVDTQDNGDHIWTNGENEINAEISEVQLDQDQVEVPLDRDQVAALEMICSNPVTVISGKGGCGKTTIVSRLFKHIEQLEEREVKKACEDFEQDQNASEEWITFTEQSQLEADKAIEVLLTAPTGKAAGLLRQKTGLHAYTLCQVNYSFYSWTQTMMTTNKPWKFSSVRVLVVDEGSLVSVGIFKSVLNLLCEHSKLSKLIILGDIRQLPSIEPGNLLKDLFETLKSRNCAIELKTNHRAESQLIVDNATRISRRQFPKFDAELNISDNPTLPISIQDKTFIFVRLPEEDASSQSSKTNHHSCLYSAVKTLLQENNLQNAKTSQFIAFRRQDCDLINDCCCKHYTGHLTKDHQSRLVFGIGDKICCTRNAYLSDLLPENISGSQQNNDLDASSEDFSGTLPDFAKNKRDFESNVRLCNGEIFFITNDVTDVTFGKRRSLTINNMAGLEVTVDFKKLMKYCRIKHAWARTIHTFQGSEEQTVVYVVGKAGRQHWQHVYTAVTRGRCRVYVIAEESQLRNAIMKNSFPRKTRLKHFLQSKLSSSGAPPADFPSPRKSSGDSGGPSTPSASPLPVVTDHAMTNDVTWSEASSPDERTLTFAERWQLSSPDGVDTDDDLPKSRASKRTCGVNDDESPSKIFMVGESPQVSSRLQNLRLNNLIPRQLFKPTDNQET
Sequence of HELB (DNA helicase B);Human RPA (hRPA) (P27694 whole entry, chain 2 of 4): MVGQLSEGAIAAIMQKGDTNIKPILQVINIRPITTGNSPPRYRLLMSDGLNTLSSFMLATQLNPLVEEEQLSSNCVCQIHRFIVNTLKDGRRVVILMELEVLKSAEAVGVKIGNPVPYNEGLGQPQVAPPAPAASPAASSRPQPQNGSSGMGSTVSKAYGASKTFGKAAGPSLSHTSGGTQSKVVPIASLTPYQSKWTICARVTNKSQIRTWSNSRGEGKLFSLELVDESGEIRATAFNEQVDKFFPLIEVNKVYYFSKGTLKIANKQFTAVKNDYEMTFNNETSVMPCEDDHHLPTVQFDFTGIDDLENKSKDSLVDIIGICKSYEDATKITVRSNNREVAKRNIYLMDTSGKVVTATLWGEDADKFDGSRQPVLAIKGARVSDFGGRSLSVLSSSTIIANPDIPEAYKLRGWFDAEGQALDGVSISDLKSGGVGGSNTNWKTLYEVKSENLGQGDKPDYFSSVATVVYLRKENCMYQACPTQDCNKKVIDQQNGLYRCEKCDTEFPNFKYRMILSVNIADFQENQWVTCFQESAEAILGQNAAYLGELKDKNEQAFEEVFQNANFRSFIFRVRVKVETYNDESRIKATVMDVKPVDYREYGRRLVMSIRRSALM
Sequence of HELB (DNA helicase B);Human RPA (hRPA) (P15927 whole entry, chain 3 of 4): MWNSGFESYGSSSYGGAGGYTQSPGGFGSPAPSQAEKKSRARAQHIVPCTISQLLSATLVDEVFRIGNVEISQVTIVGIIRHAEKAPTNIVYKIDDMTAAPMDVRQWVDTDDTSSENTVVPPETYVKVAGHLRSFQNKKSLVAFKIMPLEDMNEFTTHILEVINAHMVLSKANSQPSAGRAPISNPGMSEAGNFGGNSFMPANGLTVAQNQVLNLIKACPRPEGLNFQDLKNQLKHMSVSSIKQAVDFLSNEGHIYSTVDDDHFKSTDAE
Sequence of HELB (DNA helicase B);Human RPA (hRPA) (P35244 whole entry, chain 4 of 4): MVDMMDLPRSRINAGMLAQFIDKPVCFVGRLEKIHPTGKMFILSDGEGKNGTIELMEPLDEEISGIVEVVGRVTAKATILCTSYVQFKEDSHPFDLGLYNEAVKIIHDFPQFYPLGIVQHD

Sequence of HELB (DNA helicase B) (Q8NG08 whole entry): as the sequence (Q8NG08 whole entry, chain 1 of 4) above
Sequence of Human RPA (hRPA) (P27694 whole entry, chain 1 of 3): as the sequence (P27694 whole entry, chain 2 of 4) above
Sequence of Human RPA (hRPA) (P15927 whole entry, chain 2 of 3): as the sequence (P15927 whole entry, chain 3 of 4) above
Sequence of Human RPA (hRPA) (P35244 whole entry, chain 3 of 3): as the sequence (P35244 whole entry, chain 4 of 4) above

| Binder | Kd (HELB (DNA helicase B)) [nM] | binding result (Human RPA (hRPA)) | binding result [1] |
| --- | --- | --- | --- |
| TTTTTTTTTTTTTTTTTTTTTTTTTTTTTT (ssDNA) [poly(dT) 30mer] | ~5 | – | – |
| GCTTGCTAGGACGGATCGCTCGAGG (ssDNA) [EMSA 25mer] | – | binds | binds |
